Laboratory results: the Human Domainome abundance scans (Beltran et al. 2025)

B1: POU domain, class 2, transcription factor 2, residues 200 to 269; numbered along this chain, P09086 (parent)
chain: LEELEQFARTFKQRRIKLGFTQGDVGLAMGKLYGNDFSQTTISRFEALNLSFKNMCKLKPLLEKWLNDAE

Variants of: B1
Experiment: abundance fitness (aPCA) (normalised: wild type 0, dead -1); higher = more abundant; growth selection in yeast, the domain comes from the species named
Conditions: Homo sapiens

Abundance fitness of substitutions, site by site:
N49: P -0.671; G -0.004; E 0.07; F -0.219; Q 0.053; Y -0.249; D 0.049; H -0.018; V -0.091; I -0.037; K -0.007; R -0.052; W -0.309; A -0.026; S -0.005; C 0.012; L -0.032
E46: Y -0.994; L -0.904; C -1.06; S -1.05; G -0.942; I -0.956; P -0.885; D -0.942; T -0.87; A -0.765; Q -1.08; N -0.973; F -0.996; R -0.993; K -0.431; H -0.944; V -0.79; W -1.02
L48: A 0.053; E 0.014; F 0.056; P -0.472; Q -0.011; I -0.029; W -0.158; M -0.031; H 0.023; N -0.026; S 0.028; Y -0.329; V 0.018; C 0.049; D -0.27; K 0.07
S51: H -0.049; F -0.832; R -0.102; L -0.785; I -0.684; P 0.006; C -0.172; K -0.019; A -0.117; N -0.037; E 0.025; T 0.007; G -0.05; D 0.06; M -0.317
R44: P -0.936; K 0.033; M -0.006; D -0.06; H -0.168; A 0.04; Y -0.033; I -0.926; Q 0.125; S 0.065; N -0.482; W -0.251; G 0.008; L -0.025; C -0.057; V -0.523; E 0.088
